This note sets out measurements from patent publication US20200030378A1.

B1: w830 clonotype 3 TCR (TCR)
TCR alpha: CAYPSTDKLIF
TCR beta: CASSILGASNQPQHF
B2: w876 clonotype 13 TCR (TCR)
TCR alpha: CVVTDTSGGGADGLTF
TCR beta: CASSLAGLAGTDTQYF
B3: w876 clonotype 8 TCR (TCR)
TCR alpha: CVVYASKIIF
TCR beta: CASSDTPDLNTEAFF
B4: w876 clonotype 14 TCR (TCR)
TCR alpha: CVVPSAGKSTF
TCR beta: CASSEFAGQETQYF

This experiment addresses MCPyV KLL epitope presented by HLA-A*02:01 on cells (human; Merkel cell polyomavirus), A*02:0. The experiment is described as follows: cell-based or functional assay.
For B1, the EC50 (ng/uL DNA), IFN-γ secretion, COS-7 + HLA-A*02:01 + tLTAg plasmid was found to be 270 ng/µL DNA.
As for B2, the figure is 3.9 ng/µL DNA.
As for B3, the figure is 4.2 ng/µL DNA; as for B4, 5.4 ng/µL DNA.
